Test system: growth of yeast strains under 51 stress conditions
Experiment: Growth assays in 51 stress conditions (Fig. 1E-F, S2D, S5B)
Format: cell-based, Saccharomyces cerevisiae
Set-up: key to Growth (Fig. S2D) / growth of ABP1 SH3-swapped strains in stress condition: log2 colony size, average of median per strain (growth score)
Conditions: ABP1 SH3-swapped strains
In short: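 Yeast WT, SH3-deleted, KO, SH3-swapped and SH3-shuffled strains pinned in 1536 format, 12 replicates each; pregrown on YPD 2 days at 30 °C, then replicated onto 51 media at 37 °C and imaged every 2 h. Growth score = mean of per-plate median log2 colony size at 74 h.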

B1: MYO5 (protein, UniProt Q04439 1-1219, looked up)
Myosin-5: MAILKRGARKKVHQEPAKRSANIKKATFDSSKKKEVGVSDLTLLSKISDEAINENLKKRFLNATIYTYIGHVLISVNPFRDLGIYTDAVMNEYKGKNRLEVPPHVFAIAESMYYNMKSYNENQCVIISGESGAGKTEAAKRIMQYIAAASSTHTESIGKIKDMVLATNPLLESFGCAKTLRNNNSSRHGKYLEIKFNNQFEPCAGNITNYLLEKQRVVSQIKNERNFHIFYQFTKGASDAYRQTFGVQKPEQYVYTAAAGCISAETIDDLQDYQETLKAMRVIGLGQEEQDQIFRMLAAILWIGNVSFIENEEGNAQVRDTSVTDFVAYLLQIDSQLLIKSLVERIMETNHGMKRGSVYHVPLNIVQADAVRDALAKAIYNNLFDWIVSRVNKSLQAFPGAEKSIGILDIYGFEIFEHNSFEQICINYVNEKLQQIFIQLTLKSEQETYEREKIQWTPIKYFDNKVVCDLIEARRPPGIFAAMNDSVATAHADSNAADQAFAQRLNLFTTNPHFDLRSNKFVIKHYAGDVTYDIDGITDKNKDQLQKDLVELIGTTTNTFLATIFPDTVDRESKRRPPTAGDKIIKSANDLVETLSKAQPSYIRTIKPNETKSPNDYDDRQVLHQIKYLGLQENVRIRRAGFAYRQVFEKFVERFYLLSPHCSYAGDYTWQGDTLDAVKYILQDSSIPQQEYQLGVTSVFIKTPETLFALEHMRDRYWHNMAARIQRAWRRFLQRRIDAATKIQRTIRERKEGNKYEKLRDYGTKVLGGRKERRSMSLLGYRAFMGDYLSCNESKSKGAYIKRQVSIKEKVIFSIHGEALHTKFGRSAQRLKKTFLLTPTTLYIVGQTLVQNAMTYTQDYKIDVRNIQAVSLTNLQDDWVAIKLASSGQPDPLINTYFKTELITHLKRLNDKIQIKIGSAIEYQKKPGKLHSVKCQINESAPKYGDIYKSSTISVRRGNPPNSQVHKKPRKKSSISSGYHASSSQATRRPVSIAAAQHVPTAPASRHSKKPAPPPPGMQNKAATRRSVPNPASTLTASQSNARPSPPTAATRATPAATPAAAAMGSGRQANIPPPPPPPPPSSKPKEPMFEAAYDFPGSGSPSELPLKKGDVIYITREEPSGWSLGKLLDGSKEGWVPTAYMKPHSGNNNIPTPPQNRDVPKPVLNSVQHDNTSANVIPAAAQASLGDGLANALAARANKMRLESDDEEANEDEEEDDW
In the case of B1, the “Growth (Fig. S2D)” value (Bathophenanthroline.0.1uM) is reported as 10.7807, the “Growth (Fig. S2D)” value (Bathophenanthroline.10uM) is reported as 10.5943 and the “Growth (Fig. S2D)” value (Bathophenanthroline.1uM) is reported as 10.7288. For the same molecule, the “Growth (Fig. S2D)” value (CaCl2.100mM) was 10.8763, the “Growth (Fig. S2D)” value (CaCl2.250mM) was 10.7748 and the “Growth (Fig. S2D)” value (CaCl2.500mM) was 10.1951. The “Growth (Fig. S2D)” value (Caffein.10mM) was 10.0771, the “Growth (Fig. S2D)” value (Caffein.2mM) was 10.9616 and the “Growth (Fig. S2D)” value (CdCl2.100uM) was 9.383. For the same molecule, the “Growth (Fig. S2D)” value (CdCl2.10uM) was 10.8746, the “Growth (Fig. S2D)” value (CdCl2.50uM) was 9.758 and the “Growth (Fig. S2D)” value (CuSO4.1mM) was 10.0515. The “Growth (Fig. S2D)” value (CuSO4.5mM) was 7.47, the “Growth (Fig. S2D)” value (Cycloheximide.0.05.uM) was 11.0185 and the “Growth (Fig. S2D)” value (Cycloheximide.0.2.uM) was 10.5753. For the same molecule, the “Growth (Fig. S2D)” value (Cycloheximide.0.5.uM) was 10.0157, the “Growth (Fig. S2D)” value (DMSO.2.) was 11.0566 and the “Growth (Fig. S2D)” value (DMSO.6.) was 9.912. The “Growth (Fig. S2D)” value (DMSO.8.) was 9.351, the “Growth (Fig. S2D)” value (Ethanol.2.) was 10.6973 and the “Growth (Fig. S2D)” value (Ethanol.6.) was 10.1096. For the same molecule, the “Growth (Fig. S2D)” value (Ethanol.8.) was 9.896, the “Growth (Fig. S2D)” value (Galactose.2.) was 10.7371 and the “Growth (Fig. S2D)” value (Glycerol.2.) was 8.938. The “Growth (Fig. S2D)” value (Hydroxyurea.25mM) was 10.701, the “Growth (Fig. S2D)” value (Hygromycin.190uM) was 10.9824 and the “Growth (Fig. S2D)” value (Hygromycin.19uM) was 10.9737. For the same molecule, the “Growth (Fig. S2D)” value (Hygromycin.95uM) was 11.0723, the “Growth (Fig. S2D)” value (MMS.0.004.) was 10.9048 and the “Growth (Fig. S2D)” value (MMS.0.02.) was 10.5139. For the same molecule, the “Growth (Fig. S2D)” value (MMS.0.04.) was 9.517, the “Growth (Fig. S2D)” value (Menadione.100uM) was 10.5627 and the “Growth (Fig. S2D)” value (Menadione.200uM) was 10.4133. The “Growth (Fig. S2D)” value (Menadione.50uM) was 10.7993, the “Growth (Fig. S2D)” value (NaCl.0.25M) was 10.7283 and the “Growth (Fig. S2D)” value (NaCl.1M) was 9.177. For the same molecule, the “Growth (Fig. S2D)” value (Nitroquinoline.10uM) was 10.6793, the “Growth (Fig. S2D)” value (Nitroquinoline.50uM) was 10.4598 and the “Growth (Fig. S2D)” value (Nystatin.0.01uM) was 11.0134. The “Growth (Fig. S2D)” value (Nystatin.0.1uM) was 10.9398, the “Growth (Fig. S2D)” value (Raffinose.2.) was 10.9979 and the “Growth (Fig. S2D)” value (Rapamycin.10nM) was 9.833. For the same molecule, the “Growth (Fig. S2D)” value (Rapamycin.50nM) was 9.517, the “Growth (Fig. S2D)” value (SC.pH3) was 10.3672 and the “Growth (Fig. S2D)” value (SC.pH6) was 10.9549. For the same molecule, the “Growth (Fig. S2D)” value (SDS.0.01.) was 10.9651, the “Growth (Fig. S2D)” value (SDS.0.02.) was 10.9575 and the “Growth (Fig. S2D)” value (SDS.0.05.) was 10.8115. For the same molecule, the “Growth (Fig. S2D)” value (Sorbitol.10mM) was 10.9933, the “Growth (Fig. S2D)” value (Sorbitol.1mM) was 11.0521 and the “Growth (Fig. S2D)” value (Sorbitol.5mM) was 10.9248.

B2: PEX13 (protein, UniProt P80667 1-386, looked up)
Peroxisomal membrane protein …: MSSTAVPRPKPWETSASLEEPQRNAQSLSAMMTSNQQDSRPTEESNNSNSASESAPEVLPRPAALNSSGTYGESNTIPGIYGNSNYGIPYDNNPYSMNSIYGNSIGRYGYGGSYYGNNYGSFYGGGYGAGAGYGMNNGSGLGESTKATFQLIESLIGAVTGFAQMLESTYMATHNSFFTMISVAEQFGNLKEMLGSFFGIFAIMKFLKKILYRATKGRLGIPPKNFAESEGSKNKLIEDFQKFNDSGTINSNEKATRRKISWKPLLFFLMAVFGFPYLLNKFITKLQTSGTIRASQGNGSEPIDPSKLEFARALYDFVPENPEMEVALKKGDLMAILSKKDPLGRDSDWWKVRTKNGNIGYIPYNYIEIIKRRKKIEHVDDETRTH
In the case of B2, the “Growth (Fig. S2D)” value (Bathophenanthroline.0.1uM) is reported as 10.7929, the “Growth (Fig. S2D)” value (Bathophenanthroline.10uM) is reported as 10.6448 and the “Growth (Fig. S2D)” value (Bathophenanthroline.1uM) is reported as 10.7999. The “Growth (Fig. S2D)” value (CaCl2.100mM) was 10.8263, the “Growth (Fig. S2D)” value (CaCl2.250mM) was 10.7201 and the “Growth (Fig. S2D)” value (CaCl2.500mM) was 10.3034. The “Growth (Fig. S2D)” value (Caffein.10mM) was 10.0127, the “Growth (Fig. S2D)” value (Caffein.2mM) was 10.9279 and the “Growth (Fig. S2D)” value (CdCl2.100uM) was 9.606. For the same molecule, the “Growth (Fig. S2D)” value (CdCl2.10uM) was 10.8888, the “Growth (Fig. S2D)” value (CdCl2.50uM) was 9.97 and the “Growth (Fig. S2D)” value (CuSO4.1mM) was 10.4898. For the same molecule, the “Growth (Fig. S2D)” value (CuSO4.5mM) was 8.152, the “Growth (Fig. S2D)” value (Cycloheximide.0.05.uM) was 11.0541 and the “Growth (Fig. S2D)” value (Cycloheximide.0.2.uM) was 10.6387. The “Growth (Fig. S2D)” value (Cycloheximide.0.5.uM) was 10.1719, the “Growth (Fig. S2D)” value (DMSO.2.) was 11.0404 and the “Growth (Fig. S2D)” value (DMSO.6.) was 10.0301. For the same molecule, the “Growth (Fig. S2D)” value (DMSO.8.) was 9.367, the “Growth (Fig. S2D)” value (Ethanol.2.) was 10.7664 and the “Growth (Fig. S2D)” value (Ethanol.6.) was 10.3235. The “Growth (Fig. S2D)” value (Ethanol.8.) was 10.0926, the “Growth (Fig. S2D)” value (Galactose.2.) was 10.787 and the “Growth (Fig. S2D)” value (Glycerol.2.) was 9.849. The “Growth (Fig. S2D)” value (Hydroxyurea.25mM) was 10.7235, the “Growth (Fig. S2D)” value (Hygromycin.190uM) was 10.9621 and the “Growth (Fig. S2D)” value (Hygromycin.19uM) was 10.9745. The “Growth (Fig. S2D)” value (Hygromycin.95uM) was 11.0265, the “Growth (Fig. S2D)” value (MMS.0.004.) was 10.9502 and the “Growth (Fig. S2D)” value (MMS.0.02.) was 10.7047. The “Growth (Fig. S2D)” value (MMS.0.04.) was 10.0276, the “Growth (Fig. S2D)” value (Menadione.100uM) was 10.6371 and the “Growth (Fig. S2D)” value (Menadione.200uM) was 10.4195. For the same molecule, the “Growth (Fig. S2D)” value (Menadione.50uM) was 10.8434, the “Growth (Fig. S2D)” value (NaCl.0.25M) was 10.6874 and the “Growth (Fig. S2D)” value (NaCl.1M) was 9.71. For the same molecule, the “Growth (Fig. S2D)” value (Nitroquinoline.10uM) was 10.7399, the “Growth (Fig. S2D)” value (Nitroquinoline.50uM) was 10.726 and the “Growth (Fig. S2D)” value (Nystatin.0.01uM) was 11.0207. The “Growth (Fig. S2D)” value (Nystatin.0.1uM) was 11.0033, the “Growth (Fig. S2D)” value (Raffinose.2.) was 10.9918 and the “Growth (Fig. S2D)” value (Rapamycin.10nM) was 9.862. For the same molecule, the “Growth (Fig. S2D)” value (Rapamycin.50nM) was 9.428, the “Growth (Fig. S2D)” value (SC.pH3) was 10.3898 and the “Growth (Fig. S2D)” value (SC.pH6) was 10.9788. The “Growth (Fig. S2D)” value (SDS.0.01.) was 10.9752, the “Growth (Fig. S2D)” value (SDS.0.02.) was 10.9697 and the “Growth (Fig. S2D)” value (SDS.0.05.) was 10.895. For the same molecule, the “Growth (Fig. S2D)” value (Sorbitol.10mM) was 10.9735, the “Growth (Fig. S2D)” value (Sorbitol.1mM) was 11.0343 and the “Growth (Fig. S2D)” value (Sorbitol.5mM) was 10.9175.
